The record followed here is patent US20240301052A1 (LANOVA MEDICINES DEVELOPMENT, published 2024).

The labels stand for the following.
T1: human SLC34A2 (human, UniProt O95436 1-690)
T1 construct: whole, on cells; also called human solute carrier 34 A2; NaPi2b
T1 sequence (looked up): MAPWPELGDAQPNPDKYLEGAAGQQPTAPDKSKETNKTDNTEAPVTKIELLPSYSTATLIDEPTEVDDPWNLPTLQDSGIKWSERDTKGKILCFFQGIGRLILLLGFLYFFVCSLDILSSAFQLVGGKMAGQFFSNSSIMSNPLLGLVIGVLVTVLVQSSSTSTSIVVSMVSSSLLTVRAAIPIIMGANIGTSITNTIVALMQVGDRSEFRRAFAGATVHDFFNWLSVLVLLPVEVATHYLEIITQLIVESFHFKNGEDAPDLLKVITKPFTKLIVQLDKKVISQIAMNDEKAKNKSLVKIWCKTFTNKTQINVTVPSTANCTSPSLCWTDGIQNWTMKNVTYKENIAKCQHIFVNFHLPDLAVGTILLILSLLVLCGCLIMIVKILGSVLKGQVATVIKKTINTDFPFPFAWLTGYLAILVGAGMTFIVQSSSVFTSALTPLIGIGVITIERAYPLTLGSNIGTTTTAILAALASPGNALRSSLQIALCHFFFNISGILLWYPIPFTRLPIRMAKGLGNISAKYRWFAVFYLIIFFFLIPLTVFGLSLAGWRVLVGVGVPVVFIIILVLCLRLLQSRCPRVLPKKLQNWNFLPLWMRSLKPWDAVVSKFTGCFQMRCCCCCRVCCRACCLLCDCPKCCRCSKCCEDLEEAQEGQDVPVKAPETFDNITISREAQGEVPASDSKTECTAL

B1: 30H9B8F9.p1.z1 hIgG1 (antibody, V domains shown)
VH: QVQLVQSGAEVKKPGASVKVSCKASGYTFTTNNMHWVRQAPGQGLEWMGAIYPGSGATAYNQKFKGRVTMTRDTSTSTVYMELSSLRSEDTAVYYCASGMYGHGAMDYWGQGTLVTVSS
VL: DIQLTQSPSFLSASVGDRVTITCKASQDVGTAVAWYQQKPGKAPKLLIYWATTRHSGVPSRFSGSGSGTEFTLTISSLQPEDFATYYCQQYSSNPLTFGQGTKLEIK
notes: humanized hIgG1
B2: 30H9B8F9.p1.z7 hIgG1 (antibody, V domains shown)
VH: QVQLVQSGAEVKKPGASVKVSCKTSGYTFTTNNMHWVRQAPGQGLEWIGAIYPGSGATAYNQKFKGRVTMTADTSTSTVYMELSSLRSEDTAVYYCARGMYGHGAMDYWGQGTLVTVSS
VL: DIQMTQSPSFLSASVGDRVTITCKASQDVGTAVAWYQQKPGKSPKLLIYWATTRHSGVPDRFSGSGSGTEFIFTISSVQPEDFATYFCQQYSSNPLTFGAGTKLEIK
notes: humanized hIgG1
B3: 30H9B8F9.p1.z3 hIgG1 (antibody, V domains shown)
VH: QVQLVQSGAEVKKPGASVKVSCKASGYTFTTNNMHWVRQAPGQGLEWMGAIYPGSGATAYNQKFKGRVTMTRDTSTSTVYMELSSLRSEDTAVYYCASGMYGHGAMDYWGQGTLVTVSS
VL: DIQMTQSPSFLSASVGDRVTITCKASQDVGTAVAWYQQKPGKSPKLLIYWATTRHSGVPDRFSGSGSGTEFIFTISSVQPEDFATYFCQQYSSNPLTFGAGTKLEIK
notes: humanized hIgG1
B4: 30H9B8F9.p1.z2 hIgG1 (antibody, V domains shown)
VH: QVQLVQSGAEVKKPGASVKVSCKASGYTFTTNNMHWVRQAPGQGLEWMGAIYPGSGATAYNQKFKGRVTMTRDTSTSTVYMELSSLRSEDTAVYYCASGMYGHGAMDYWGQGTLVTVSS
VL: DIQLTQSPSFLSASVGDRVTITCKASQDVGTAVAWYQQKPGKSPKLLIYWATTRHSGVPDRFSGSGSGTEFTFTISSLQPEDFATYFCQQYSSNPLTFGQGTKLEIK
notes: humanized hIgG1
B5: 30H9B8F9.p1.z4 hIgG1 (antibody, V domains shown)
VH: QVQLVQSGAEVKKPGASVKVSCKASGYTFTTNNMHWVRQAPGQGLEWMGAIYPGSGATAYNQKFKGRVTMTRDTSTSTVYMELSSLRSEDTAVYYCASGMYGHGAMDYWGQGTLVTVSS
VL: DIVMTQSPSFLSASVGDRVTITCKASQDVGTAVAWYQQKPGKSPKLLIYWATTRHSGVPDRFTGSGSGTDFIFTISSVQPEDFATYFCQQYSSNPLTFGAGTKLEIK
notes: humanized hIgG1
B6: 62G10E4G8.p3.z7 hIgG1 (antibody, V domains shown)
VH: QVQLVQSGAEVKKPGASVKVSCKASGYTFPSYITHWVRQAPGQGLEWIGAIYPGNADTSYIQKFKGRVTMTADKSTSTVYMELSSLRSEDTAVYYCARGTYGTSAWFTYWGQGTLVTVSS
VL: EIVLTQSPATLSVSPGERATLSCRARQNIGNNLYWYQQKPGQSPRLLIKYASQSISGIPSRFSGSGSGTDFTLTISSLQSEDFAVYFCQQSFSWPLTFGQGTKLEIK
notes: humanized hIgG1
B7: 62G10E4G8.p3.z1 hIgG1 (antibody, V domains shown)
VH: QVQLVQSGAEVKKPGASVKVSCKASGYTFPSYITHWVRQAPGQGLEWMGAIYPGNADTSYIQKFKGRVTMTRDTSTSTVYMELSSLRSEDTAVYYCARGTYGTSAWFTYWGQGTLVTVSS
VL: EIVMTQSPATLSVSPGERATLSCRARQNIGNNLYWYQQKPGQAPRLLIYYASQSISGIPARFSGSGSGTEFTLTISSLQSEDFAVYYCQQSFSWPLTFGQGTKLEIK
notes: humanized hIgG1
B8: 62G10E4G8.p3.z12 hIgG1 (antibody, V domains shown)
VH: QVQLVQSGAEVKKPGASVKVSCKASGYTFPSYITHWVKQAPGQGLEWIGAIYPGNADTSYIQKFKGRVTLTADKSTSTAYMELSSLRSEDTAVYYCARGTYGTSAWFTYWGQGTLVTVSS
VL: EIVLTQSPATLSASPGERATLSCRARQNIGNNLYWYQQKPGQSPRLLIKYASQSISGIPSRFSGSGSGTDFTLTISSVQSEDFAVYFCQQSFSWPLTFGAGTKLEIK
notes: humanized hIgG1
B9: 62G10E4G8.p3.z6 hIgG1 (antibody, V domains shown)
VH: QVQLVQSGAEVKKPGASVKVSCKASGYTFPSYITHWVRQAPGQGLEWIGAIYPGNADTSYIQKFKGRVTMTADKSTSTVYMELSSLRSEDTAVYYCARGTYGTSAWFTYWGQGTLVTVSS
VL: EIVMTQSPATLSVSPGERATLSCRARQNIGNNLYWYQQKPGQSPRLLIKYASQSISGIPARFSGSGSGTEFTLTISSLQSEDFAVYFCQQSFSWPLTFGQGTKLEIK
notes: humanized hIgG1
B10: 62G10E4G8.p3.z9 hIgG1 (antibody, V domains shown)
VH: QVQLVQSGAEVKKPGASVKVSCKASGYTFPSYITHWVKQAPGQGLEWIGAIYPGNADTSYIQKFKGRVTLTADKSTSTAYMELSSLRSEDTAVYYCARGTYGTSAWFTYWGQGTLVTVSS
VL: EIVMTQSPATLSVSPGERATLSCRARQNIGNNLYWYQQKPGQAPRLLIYYASQSISGIPARFSGSGSGTEFTLTISSLQSEDFAVYYCQQSFSWPLTFGQGTKLEIK
notes: humanized hIgG1
B11: 62G10E4G8.p3.z10 hIgG1 (antibody, V domains shown)
VH: QVQLVQSGAEVKKPGASVKVSCKASGYTFPSYITHWVKQAPGQGLEWIGAIYPGNADTSYIQKFKGRVTLTADKSTSTAYMELSSLRSEDTAVYYCARGTYGTSAWFTYWGQGTLVTVSS
VL: EIVMTQSPATLSVSPGERATLSCRARQNIGNNLYWYQQKPGQSPRLLIKYASQSISGIPARFSGSGSGTEFTLTISSLQSEDFAVYFCQQSFSWPLTFGQGTKLEIK
notes: humanized hIgG1
B12: 62G10E4G8.p3.z2 hIgG1 (antibody, V domains shown)
VH: QVQLVQSGAEVKKPGASVKVSCKASGYTFPSYITHWVRQAPGQGLEWMGAIYPGNADTSYIQKFKGRVTMTRDTSTSTVYMELSSLRSEDTAVYYCARGTYGTSAWFTYWGQGTLVTVSS
VL: EIVMTQSPATLSVSPGERATLSCRARQNIGNNLYWYQQKPGQSPRLLIKYASQSISGIPARFSGSGSGTEFTLTISSLQSEDFAVYFCQQSFSWPLTFGQGTKLEIK
notes: humanized hIgG1
B13: 62G10E4G8.p3.z14 hIgG1 (antibody, V domains shown)
VH: QVQLVQSGAEVVKPGASVKMSCKASGYTFPSYITHWVKQAPGQGLEWIGAIYPGNADTSYIQKFKGRATLTADKSTSTAYMELSSLRSEDTAVYYCARGTYGTSAWFTYWGQGTLVTVSS
VL: EIVMTQSPATLSVSPGERATLSCRARQNIGNNLYWYQQKPGQSPRLLIKYASQSISGIPARFSGSGSGTEFTLTISSLQSEDFAVYFCQQSFSWPLTFGQGTKLEIK
notes: humanized hIgG1
B14: 62G10E4G8.p3.z3 hIgG1 (antibody, V domains shown)
VH: QVQLVQSGAEVKKPGASVKVSCKASGYTFPSYITHWVRQAPGQGLEWMGAIYPGNADTSYIQKFKGRVTMTRDTSTSTVYMELSSLRSEDTAVYYCARGTYGTSAWFTYWGQGTLVTVSS
VL: EIVLTQSPATLSVSPGERATLSCRARQNIGNNLYWYQQKPGQSPRLLIKYASQSISGIPSRFSGSGSGTDFTLTISSLQSEDFAVYFCQQSFSWPLTFGQGTKLEIK
notes: humanized hIgG1
B15: 62G10E4G8.p3.z16 hIgG1 (antibody, V domains shown)
VH: QVQLVQSGAEVVKPGASVKMSCKASGYTFPSYITHWVKQAPGQGLEWIGAIYPGNADTSYIQKFKGRATLTADKSTSTAYMELSSLRSEDTAVYYCARGTYGTSAWFTYWGQGTLVTVSS
VL: EIVLTQSPATLSASPGERATLSCRARQNIGNNLYWYQQKPGQSPRLLIKYASQSISGIPSRFSGSGSGTDFTLTISSVQSEDFAVYFCQQSFSWPLTFGAGTKLEIK
notes: humanized hIgG1
B16: 62G10E4G8.p3.z5 hIgG1 (antibody, V domains shown)
VH: QVQLVQSGAEVKKPGASVKVSCKASGYTFPSYITHWVRQAPGQGLEWIGAIYPGNADTSYIQKFKGRVTMTADKSTSTVYMELSSLRSEDTAVYYCARGTYGTSAWFTYWGQGTLVTVSS
VL: EIVMTQSPATLSVSPGERATLSCRARQNIGNNLYWYQQKPGQAPRLLIYYASQSISGIPARFSGSGSGTEFTLTISSLQSEDFAVYYCQQSFSWPLTFGQGTKLEIK
notes: humanized hIgG1
B17: 62G10E4G8.p3.z4 hIgG1 (antibody, V domains shown)
VH: QVQLVQSGAEVKKPGASVKVSCKASGYTFPSYITHWVRQAPGQGLEWMGAIYPGNADTSYIQKFKGRVTMTRDTSTSTVYMELSSLRSEDTAVYYCARGTYGTSAWFTYWGQGTLVTVSS
VL: EIVLTQSPATLSASPGERATLSCRARQNIGNNLYWYQQKPGQSPRLLIKYASQSISGIPSRFSGSGSGTDFTLTISSVQSEDFAVYFCQQSFSWPLTFGAGTKLEIK
notes: humanized hIgG1

This assay concerns the target T1, human SLC34A2. Nature of the assay: FACS, OVCAR3 cells. Here is the method:
The binding of these humanized antibodies to OVCAR3 cells was evaluated as described above, and the results are shown in FIG. 12A-D and Tables 16A-D.
Take B1: the EC50 was determined as 2.75 nM and the “Top (MFI)” value was 27100 MFI.
The like results for B2 were, in that order, 1.69 nM and 26700 MFI.
In the same order, the values of B3 are 2.38 nM and 19600 MFI.
In the same order, the values of B4 are 3.09 nM and 25200 MFI.
For B5, the EC50 is 2.76 nM and the “Top (MFI)” value was 20400 MFI.
The like results for B6 were, in that order, 6.08 nM and 26800 MFI.
The like results for B7 were, in that order, 944 nM and 87700 MFI.
Consider B8, for which the response was half-maximal at 2.96 nM (EC50) and the “Top (MFI)” value is 25400 MFI.
The like results for B9 were, in that order, 8.06 nM and 28200 MFI.
In the same order, the values of B10 are 24.1 nM and 31300 MFI.
B11: the EC50 amounted to 4.87 nM and the “Top (MFI)” value is 27400 MFI.
For B12, the EC50 turned out to be 32.9 nM and the “Top (MFI)” value is 29700 MFI.
On to B13, for which the response was half-maximal at 4.58 nM (EC50) and the “Top (MFI)” value worked out at 27900 MFI.
The like results for B14 were, in that order, 17.3 nM and 31300 MFI.
The like results for B15 were, in that order, 10.9 nM and 31900 MFI.
The like results for B16 were, in that order, about 1360 nM and about 230000 MFI.
Consider B17, for which it took 16.3 nM to reach a half-maximal effect (EC50) and the “Top (MFI)” value turned out to be 29900 MFI.
